The text below walks through data of publication PMC8299537.

For this assay, the target named is DPP9, short isoform (His-TEV-DPP9), co-purified with NLRP1ΔΔ (human), Q86TI2. Description: cryo-EM structure. To be noted: remark: other sources report otherwise.

B1: DPP9, short isoform (His-TEV-DPP9), co-purified with NLRP1ΔΔ, Q86TI2-1 1-863 (enzyme)
chain: MATTGTPTADRGDAAATDDPAARFQVQKHSWDGLRSIIHGSRKYSGLIVNKAPHDFQFVQKTDESGPHSHRLYYLGMPYGSRENSLLYSEIPKKVRKEALLLLSWKQMLDHFQATPHHGVYSREEELLRERKRLGVFGITSYDFHSESGLFLFQASNSLFHCRDGGKNGFMVSPMKPLEIKTQCSGPRMDPKICPADPAFFSFINNSDLWVANIETGEERRLTFCHQGLSNVLDDPKSAGVATFVIQEEFDRFTGYWWCPTASWEGSEGLKTLRILYEEVDESEVEVIHVPSPALEERKTDSYRYPRTGSKNPKIALKLAEFQTDSQGKIVSTQEKELVQPFSSLFPKVEYIARAGWTRDGKYAWAMFLDRPQQWLQLVLLPPALFIPSTENEEQRLASARAVPRNVQPYVVYEEVTNVWINVHDIFYPFPQSEGEDELCFLRANECKTGFCHLYKVTAVLKSQGYDWSEPFSPGEDEFKCPIKEEIALTSGEWEVLARHGSKIWVNEETKLVYFQGTKDTPLEHHLYVVSYEAAGEIVRLTTPGFSHSCSMSQNFDMFVSHYSSVSTPPCVHVYKLSGPDDDPLHKQPRFWASMMEAASCPPDYVPPEIFHFHTRSDVRLYGMIYKPHALQPGKKHPTVLFVYGGPQVQLVNNSFKGIKYLRLNTLASLGYAVVVIDGRGSCQRGLRFEGALKNQMGQVEIEDQVEGLQFVAEKYGFIDLSRVAIHGWSYGGFLSLMGLIHKPQVFKVAIAGAPVTVWMAYDTGYTERYMDVPENNQHGYEAGSVALHVEKLPNEPNRLLILHGFLDENVHFFHTNFLVSQLIRAGKPYQLQIYPNERHSIRCPESGEHYEVTLLHFLQEYL
Molecule B1 returned a stoichiometry N of 2.

For orientation: stoichiometry N means a count of units in the complex or per binding partner.
